Reference: paper PMC8299219 (Cell, 2021)
Where a chain is given by its changes, count along the chain named.

B1: C93E12 (antibody, V domains shown)
VH: QVQLVEAGGGVVQPGTSLRLSCAASGFTFSNYAIQWVRQAPGKGPEWVALISYDGSNKYYADPVKGRFTLSRDNSKNTLYLQMNSLRAEDTAVYYCARGIRGGYNDAFDIWGQGTMVTVSS
VL: DIQLTQSPSFLSASVGDRVTITCRASQGISSYLTWYQQKPGKAPKLLIYAASTLQSGVPSRFSGSGSGTEFTLTISSLQPEDFATYYCQQVTSYPITFGQGTRLEIK
B2: C7I5 (antibody, V domains shown)
VH: EVQLLESGGGLVQPGGSLRLSCAASGFIFSNYVVSWVRQAPGKGLEWVSGISVNGDTTFYADSVKGRFTISRDNSKNTLYLQMNSLRAEDTAVYYCAKVRGYCSGGRGCMDVWGQGTTVTVSS
VL: DIQLTQSPSSLSPSVGDRVTITCRASQDIGNTLAWYQQKPGKAPNLLIYDASSLQSGVPSRFSGTVSGTDFTLTITSLQPEDFATYFCQQFNTYPALTFGGGTKVEIK
B3: G32B2 (antibody, V domains shown)
VH: QLQLQESGPGLVKPSETLSLTCTVSGGSISSSSYYWGWIRQPPGKGLEWIGSIYYSGSTYYNPSLKSRVTISVDTSKNQFSLKLSSVTAADTAVYYCARTVASYYDSSAYLTLGYFDYWGQGTLVTVSS
VL: SYELTQPPSVSVSPGQTARITCSGDALPKKYAYWYQQKSGQAPVLVIYEDSKRPSGIPERFSGSSSGTMATLTISGAQVEDEADYYCYSTDSSGNHNYVFGTGTKVTVL
B4: G32C5 (antibody, V domains shown)
VH: QVQLVESGGGVVQPGRSLRLSCAASGFTFSSYAMHWVRQAPGKGLEWVAVISYDGSNKYYADSVKGRFTISRDNSKNTLYLQMNSLRAEDTAVYYCARGKSGSYFGSFDYWGQGTLVTVSS
VL: not shown
B5: C81H4 (antibody, V domains shown)
VH: B4 VH with A33G, Y80C, R98K, K100R, S101G, F105Y, G106D, S107A, Y110I, L116M
VL: not shown
B6: C30B10 (antibody, V domains shown)
VH: QVQLVESGGGVVQPGRSLRLSCAASGFTFSSYGMHWVRQAPGKGLEWVAVIWYDGSNKYYADSVKGRFTISRDNSKNTLYLQMNSLRAEDTAVYYCARDYPFSGSYYGDAFDIWGQGTMVTVSS
VL: SYELTQPPSVSVSPGQTARITCSGDALPKKYAYWYQQKSGQAPVLVIYEDSKRPSGIPERFSGSSSGTMATLTISGAQVEDEADYYCYSTDSSGNRWVFGGGTKLTVL
B7: G32B4 (antibody, V domains shown)
VH: not shown
VL: B6 VL with R96L
B8: G32M2 (antibody, V domains shown)
VH: QVQLVESGGGVVQPGRSLRLSCAASGFTFSSYAMHWVRQAPGKGLEWVAVISYDGNNKYYADSVKGRFTISRDNSKNTLYLQMNSLRAEDTAMYYCARAKGGGYYYGMDVWGQGTTVTVSS
VL: SYELTQPPSVSVAPGQTARITCGGNNIGSKSVHWYQQKPGQAPVLVVYDDSDRPSGIPERFSGSNSGNTATLTISRVEAGDEADYYCQVWDSSSDPYWVFSGGTKLTVL
B9: C81C3 (antibody, V domains shown)
VH: EVQLVQSGAEVKKPGESLRISCKGSGYSFTSYWISWVRQMPGKGLEWMGRIDPSDSYTNYSPSFQGHVTISADKSISTAYLQWSSLKASDTAMYYCAIHGYYDSSGYYLPHGFDIWGQGTMVTVSS
VL: B8 VL with Q16K, K30T, S51G, Y97N, S101G
B10: C83B10 (antibody, V domains shown)
VH: QVQLVESGGGVVQPGRSLRLSCAASGFTFSIYAIHWVRQAPGKGLEWVALISYDGSNKYYADSVKGRFTISRDNSKNTLYLQMNSLRAEDTAVYYCARARGGSYSDAFDIWGQGTMVTVSS
VL: not shown
B11: G32M1 (antibody, V domains shown)
VH: QVQLVESGGGVVQPGRSLRLSCVASGFTFSSYGMHWVRQAPGKGLEWVAVIWYDGSNKYYADSVKGRFTISRDNSKNTLYLQMNSLRAEDTAVYYCAREYRSSWYNWFDSWGQGTLVTVSS
VL: SYELTQPPSVSVSPGQTARITCSGDALPKQYAYWYQQKPGQAPVMVIYKDSERPSGIPERFSGSSSGTTVTLTISGVQAEDEADYYCQSADSSGTSYVFGTGTKVTVL
B12: C102A5 (antibody, V domains shown)
VH: QVQLVESGGGVVQPGRSLRLSCAASGFTFSTYAMHWVRQAPGKGLEWVAVISYDGSNKYYADSVKGRFTISRDNSKNTLYLQMNSLRAEDTAVYYCARDLGTYRWFDPWGQGTLVTVSS
VL: DIQMTQSPSSVSASVGDRVTITCRASQGISSWLAWYQQKPGKAPKLLIYAASSLQSGVPSRFSGSGSGTDFTLTISSLQSEDFATYYCQQANSFPSFTFGPGTKVEIK
B13: C12B5 (antibody, V domains shown)
VH: B12 VH with T31S, A33G, S52W, G101A, T102V, Y103A, R104T, W105Q, F106N, P108Y
VL: B6 VL with S51G
B14: C81E12 (antibody, V domains shown)
VH: B12 VH with T31S, A33G, S52W, G101R, T102L, Y103G, R104D, W105H, P108Y
VL: B6 VL with R96H, W97R
B15: C12I7 (antibody, V domains shown)
VH: QVQLQESDPGLVQPSETLSLTCTVSRGSISSYYWSWIRQPPGKGLEWIGYIYYSGSTNYNPSLKSRVTISVDTSKNQFSLKLSSVTAADTAVYYCARVGYYDSSAYLKLGSIDYWGQGILVTVSS
VL: not shown
B16: C81E9 (antibody, V domains shown)
VH: QVQLVESGGGVVQPGRSLRLSCAASGFTFSSYAMHWVRQAPGKGLEWVAVISYDGSNKYYADSVKGRFTISRDNSKNTLFLQMNSLRPEDTAVYYCIAARNYYYMDVWGKGTTVTVSS
VL: not shown
B17: C12E6 (antibody, V domains shown)
VH: QVQLQESGSGLVKPSQTLSLTCAVSGGSISSGGYSWSWIRQPPGKGLEWIGYIYHSGSTYYNPSLKSRVTISVDRSKNQFSLKLSSVTAADTAVYYCARSGFLEWLRRVDAFDIWGQGTMVTVSS
VL: QSALTQPASVSGSPGQSITISCTGTSSDVGGYNYVSWYQQHPGKAPKLMIYDVSNRPSGVSNRFSASKSGNTASLTISGLQAEDEADYYCSSYTSSSTRVFGGGTKLTVL
B18: C30A8 (antibody, V domains shown)
VH: QVQLVESGGGLVKPGGSLRLSCAASGFTFSDSYMSWIRQAPGKGLEWVSYISSSSSYTNYADSVKGRFTISRDNAKNSLYLQMNSLRAEDTAVYYCARDRVPPYSSGWYYFDYWGQGTLVTVSS
VL: B17 VL with D52E, A66G, G70D, R99Y, G103T, L107V
B19: C163D5 (antibody, V domains shown)
VH: EVQLVESGGGLVQPGGSLRLSCAASGFTFSSYWMHWVRQAPGKGLVWVSRTNSDGSSTNYADSVKGRFTISRDNAKNTLYLQMNSLRAEDTAVYYCARPQFYVWGSDRADYGMDVWGQGTTVTVSS
VL: B17 VL with Y34S, D52E, A66G, T94R, R99L
B20: C882C6 (antibody, V domains shown)
VH: QVQLVESGGGVVQPGRSLRLSCAASGFTFSNFAIHWVRQAPGKGLEWVAVVSYDGGNKYYADSVKGRFTISRDNSKNTLYLQMNSLRAEDTSVYYCARSGSGNYYGWFDPWGQGTLVTVSS
VL: B17 VL with G31S, Y34L, D52E, V53G, N55K, A66G, S91C, T94A, S95G, R99W
B21: C12B8 (antibody, V domains shown)
VH: QVQLVESGGGVVQPGRSLGLSCAASGFTFSSYAMHWVRQAPGKGLEWVAVISYDGSNKADSVKGRFTISRDNSNNTLYLQMNSLRAEDTAVYYCAREGVVVTAPLDYWGQGTLVTVSS
VL: not shown
B22: G32L8 (antibody, V domains shown)
VH: EVQLVQSGAEVKKPGESLKISCKGSGYSFTSYWIGWVRQMPGKGLEWMGIIYPGDSDTRYSPSFQGQVTISADKSISTAYLQWSSLKASDTAMYYCARRYAVYSSGWYYWYFDLWGRGTLVTVSS
VL: not shown
B23: C53F12 (antibody, V domains shown)
VH: QVQLVQSGAEVKKPGSSVKVSCKASGGTFSSYAISWVRQAPGQGLEWMGGIIPIFGTANYAQKFQGRVTITADESTSTAYMELSSLRSEDTAVYYCARMYYYVSGSYHYFDYWGQGTLVTVSS
VL: EIVLTQSPATLSLSPGERATLSCRASQSVSSYLAWYQQKPGQAPRLLIYDASNRATGIPARFSGSGSGTDFTLTISSLEPEDFAVYYCQQRSNWPPALTFGGGTKVEIK
B24: C102B1 (antibody, V domains shown)
VH: QVQLVQSGAEVKKPGSSVKVSCKASGGTFSSYAISWVRQAPGQGLEWMGGIIPIFGTANYAQKFQGRVTITADESTSTAYMELSSLRSEDTAVYCCARDRGYCTGGVCSNYYYGIDVWGQGTTVTVSS
VL: B23 VL with A97S, L98Y, G102Q, V106L
B25: mAb 4A8 (published; Chi et al., 2020) (antibody, V domains shown)
VH: QVQLVESGAEVKKPGASVKVSCKVSGYTLTELSMHWVRQAPGKGLEWMGGFDPEDGETMYAQKFQGRVTMTEDTSTDTAYMELSSLRSEDTAVYYCATSTAVAGTPDLFDYYYGMDVWGQGTTVTVSS
VL: EIVMTQSPLSSPVTLGQPASISCRSSQSLVHSDGNTYLSWLQQRPGQPPRLLIYKISNRFSGVPDRFSGSGAGTDFTLKISRVEAEDVGVYYCTQATQFPYTFGQGTKVDIK

Target: T1, SARS-CoV-2 S ectodomain trimer, prefusion-stabilized, 2P variant (Wrapp et al., 2020) (SARS-CoV-2, Wuhan-Hu-1, UniProt P0DTC2, stabilised)
Experiment: not given

Does B1 bind?
Result: binds

Does B2 bind?
Result: binds

Does B3 bind?
Result: binds

Does B4 bind?
Result: binds

Does B5 bind?
Result: binds

Does B6 bind?
Result: binds

Does B7 bind?
Result: binds

Does B8 bind?
Result: binds

Does B9 bind?
Result: binds

Does B10 bind?
Result: binds

Does B11 bind?
Result: binds

Does B12 bind?
Result: binds

Does B13 bind?
Result: binds

Does B14 bind?
Result: binds

Does B15 bind?
Result: binds

Does B16 bind?
Result: binds

Does B17 bind?
Result: binds

Does B18 bind?
Result: binds

Does B19 bind?
Result: binds

Does B20 bind?
Result: binds

Does B21 bind?
Result: binds

Does B22 bind?
Result: binds

Does B23 bind?
Result: binds

Does B24 bind?
Result: binds

Target: T1, SARS-CoV-2 S ectodomain trimer, …
Experiment: ELISA

Does B25 bind?
Result: binds
